Experimental data reported in patent EP4477673A1, “IMMUNOCONJUGATE AND USE THEREOF” (priority 2022, dated 2023).
Like-named read-outs stand apart in the source and are kept apart here.

Assays:
[1] = molecular target: T1, human PD-1 (human, UniProt Q15116 25-288); test: cell-based or functional assay
[2] = molecular target: T2, Human PD-1 antigen protein (Sino Biological, 10377-H08H) (human, UniProt Q15116 25-167); test: SPR Biacore 8K, antibody captured by anti-human IgG (Fc), PD-1 as analyte
[3] = molecular target: T3, cynomolgus monkey PD-1 antigen protein (Sino Biological, 90311-C08H) (cynomolgus monkey, UniProt B0LAJ3 25-170); test: SPR Biacore 8K, antibody captured by anti-human IgG (Fc), cynomolgus PD-1 as analyte
T3 construct: not shown: Tag of the vendor's construct (Sino Biological 90311-C08H, probably a C-terminal His tag)
T3 sequence (B0LAJ3 entry or part of it C08H C08H limits assumed, form in doubt): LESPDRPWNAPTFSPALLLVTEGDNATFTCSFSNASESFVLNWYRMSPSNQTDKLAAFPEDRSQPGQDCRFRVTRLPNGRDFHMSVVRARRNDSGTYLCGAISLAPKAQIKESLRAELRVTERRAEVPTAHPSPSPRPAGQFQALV

[4] = molecular target: T1, human PD-1; test: cell-based or functional assay; remark: listed apart in the source
[5] = molecular target: T4, IL-2Rβ/γ on M07e cells (human, UniProt P14784 27-551; P31785 23-369); test: cell-based or functional assay
T4 sequence (looked up) 1: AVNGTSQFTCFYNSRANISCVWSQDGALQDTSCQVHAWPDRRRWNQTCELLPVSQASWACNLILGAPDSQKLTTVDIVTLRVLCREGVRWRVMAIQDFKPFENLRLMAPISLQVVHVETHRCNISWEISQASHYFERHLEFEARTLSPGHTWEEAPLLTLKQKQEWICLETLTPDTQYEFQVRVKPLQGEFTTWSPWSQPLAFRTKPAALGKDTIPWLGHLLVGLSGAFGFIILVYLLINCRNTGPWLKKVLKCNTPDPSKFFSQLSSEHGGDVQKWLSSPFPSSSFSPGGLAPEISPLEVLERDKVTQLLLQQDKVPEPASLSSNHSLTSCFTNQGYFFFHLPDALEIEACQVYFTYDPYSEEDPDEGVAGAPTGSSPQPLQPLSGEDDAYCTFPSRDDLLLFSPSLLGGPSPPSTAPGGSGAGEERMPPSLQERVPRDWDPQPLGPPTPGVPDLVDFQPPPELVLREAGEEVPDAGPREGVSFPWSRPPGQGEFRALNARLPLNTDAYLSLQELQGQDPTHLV
T4 sequence (looked up) 2: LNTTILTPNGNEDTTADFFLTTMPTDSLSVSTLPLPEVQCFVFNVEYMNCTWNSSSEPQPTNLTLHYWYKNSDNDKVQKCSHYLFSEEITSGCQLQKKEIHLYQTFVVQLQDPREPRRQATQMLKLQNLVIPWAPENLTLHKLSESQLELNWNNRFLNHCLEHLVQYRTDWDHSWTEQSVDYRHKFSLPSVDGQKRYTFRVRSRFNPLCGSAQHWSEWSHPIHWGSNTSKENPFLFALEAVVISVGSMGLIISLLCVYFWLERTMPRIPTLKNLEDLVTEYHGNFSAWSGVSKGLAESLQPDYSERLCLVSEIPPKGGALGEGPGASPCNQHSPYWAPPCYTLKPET

[6] = molecular target: T1, human PD-1; test: cell-based or functional assay; remark: listed apart in the source
[7] = molecular target: T1, human PD-1; test: cell-based or functional assay; remark: listed apart in the source
[8] = molecular target: T5, human IL-2Rβ/γ receptor heterodimer protein (Acrosystem, ILG-H5283) (human, UniProt P14784 27-239; P31785 23-262, limits assumed); test: SPR Biacore 8K; affinity for human IL-2Rβ/γ against A-PC
T5 sequence (looked up) 1: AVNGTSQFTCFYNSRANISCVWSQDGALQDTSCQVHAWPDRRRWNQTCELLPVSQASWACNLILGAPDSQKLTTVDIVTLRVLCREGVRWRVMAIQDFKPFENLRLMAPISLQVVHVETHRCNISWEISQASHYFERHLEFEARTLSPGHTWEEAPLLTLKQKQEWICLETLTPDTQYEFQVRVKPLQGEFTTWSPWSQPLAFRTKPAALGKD
T5 sequence (looked up) 2: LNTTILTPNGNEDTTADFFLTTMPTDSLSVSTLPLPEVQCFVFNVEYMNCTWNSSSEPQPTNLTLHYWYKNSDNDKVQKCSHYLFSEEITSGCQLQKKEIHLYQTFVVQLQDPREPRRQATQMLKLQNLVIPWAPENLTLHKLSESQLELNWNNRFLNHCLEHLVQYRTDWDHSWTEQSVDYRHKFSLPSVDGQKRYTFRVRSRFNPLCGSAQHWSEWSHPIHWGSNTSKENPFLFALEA

[9] = molecular target: T6, human IL-2Rα receptor protein (Sino Biological, 10165-H08H) (human, UniProt P01589 22-213); test: SPR Biacore 8K, fusion protein captured by anti-human IgG (Fc), IL-2Rα as analyte
T6 construct: also called CD25
T6 sequence (looked up): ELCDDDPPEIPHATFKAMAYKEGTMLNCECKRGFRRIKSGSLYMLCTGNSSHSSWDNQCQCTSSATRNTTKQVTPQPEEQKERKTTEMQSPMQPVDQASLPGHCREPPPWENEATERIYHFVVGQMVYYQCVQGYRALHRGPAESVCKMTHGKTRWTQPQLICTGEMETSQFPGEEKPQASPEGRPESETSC

[10] = molecular target: T2, Human PD-1 antigen protein (Sino …); test: SPR Biacore 8K, fusion protein captured by anti-human IgG (Fc), human PD-1 as analyte
[11] = molecular target: T5, human IL-2Rβ/γ receptor heterodimer …; test: SPR Biacore 8K, fusion protein captured by anti-human IgG (Fc), human IL-2Rβ/γ heterodimer as analyte

T1 sequence (Q15116 25-288 limits assumed): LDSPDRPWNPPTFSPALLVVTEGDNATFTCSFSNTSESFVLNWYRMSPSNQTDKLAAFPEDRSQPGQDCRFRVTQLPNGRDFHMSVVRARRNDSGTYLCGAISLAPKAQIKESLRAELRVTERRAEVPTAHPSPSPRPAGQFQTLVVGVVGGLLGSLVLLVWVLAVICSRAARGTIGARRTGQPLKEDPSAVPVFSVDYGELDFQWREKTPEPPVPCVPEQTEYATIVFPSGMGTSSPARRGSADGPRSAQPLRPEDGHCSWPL
T2 sequence (Q15116 25-167 limits assumed): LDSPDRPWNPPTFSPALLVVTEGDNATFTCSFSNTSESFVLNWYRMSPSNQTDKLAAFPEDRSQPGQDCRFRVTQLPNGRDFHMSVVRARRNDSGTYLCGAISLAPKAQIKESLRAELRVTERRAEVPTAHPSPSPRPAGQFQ

B1: A17m0902_hIgG4 (antibody, V domains shown)
VH: EVQLVESGGGLVQPGGSLRLSCAASGLTFSDYSMSWYRQAPGKGRELVAIISGSGVITHYVDSVKGRFTISRDNAKNTLYLQMRSLRAEDTAVYYCRAVSDWEDYWGQGTQVTVSS
notes: VHH-Fc antibody; not shown: human IgG4 Fc with hinge region and S228P (EU)
IC50, PD-1/PD-L1 NFAT reporter gene system [1]: 0.435 nM
Kd [2]: 6.09 nM
koff [2]: 0.00177 s⁻¹
kon [2]: 291000 M⁻¹ s⁻¹
Kd [3]: 3.28 nM
koff [3]: 0.00108 s⁻¹
kon [3]: 328000 M⁻¹ s⁻¹

B2: A-N88D (Fc fusion)
chain (part 1 of 2): EVQLVESGGGLVQPGGSLRLSCAASGLTFSDYSMSWYRQAPGKGRELVAIISGSGVITHYVDSVKGRFTISRDNAKNTLYLQMRSLRAEDTAVYYCRAVSDWEDYWGQGTQVTVSS
chain (part 2 of 2): GGGGSGGGGSGGGGSAPASSSTKKTQLQLEHLLLDLQMILQGISNYKNPKLTRMLTAKFYMPKKATELKHLQCLEEELKPLEEVLQGAQSKNFHLRPRDLISDINVIVLELKGSETTFMCEYADETATIVEFLNRWITFAQSIISTLT
chain: EVQLVESGGGLVQPGGSLRLSCAASGLTFSDYSMSWYRQAPGKGRELVAIISGSGVITHYVDSVKGRFTISRDNAKNTLYLQMRSLRAEDTAVYYCRAVSDWEDYWGQGTQVTVSS
notes: also called PD-1-IL-2v (N88D); not shown: IgG1 hinge (C220S) + Fc Knob chain (L234A, L235A, S354C, T366W, EU); D356/L358 or E356/M358 ver; IgG1 hinge (C220S) + Fc Hole chain (L234A, L235A, Y349C, T366S, L368A, Y407V; may have H435R, Y436F; EU)
M07e-hPD-1 cell proliferation activity (%) at 0.0001 nM [4]: 2.8%
M07e-hPD-1 cell proliferation activity (%) at 0.001 nM [4]: 3.3%
M07e-hPD-1 cell proliferation activity (%) at 0.01 nM [4]: 18.1%
M07e-hPD-1 cell proliferation activity (%) at 0.1 nM [4]: 32.1%
M07e-hPD-1 cell proliferation activity (%) at 1 nM [4]: 41.8%
M07e-hPD-1 cell proliferation activity (%) at 10 nM [4]: 45%
M07e-hPD-1 cell proliferation activity (%) at 100 nM [4]: 61.1%
M07e-hPD-1 cell proliferation activity (%) at 1000 nM [4]: 66.9%
M07e cell proliferation activity (%) at 0.46 nM [5]: -1.7%
M07e cell proliferation activity (%) at 1.4 nM [5]: -1.1%
M07e cell proliferation activity (%) at 4.1 nM [5]: -1.5%
M07e cell proliferation activity (%) at 12 nM [5]: -1.9%
M07e cell proliferation activity (%) at 37 nM [5]: -2.8%
M07e cell proliferation activity (%) at 111 nM [5]: -1.8%
M07e cell proliferation activity (%) at 333 nM [5]: 0.2%
M07e cell proliferation activity (%) at 1000 nM [5]: 14.6%
M07e-hPD-1 cell proliferation ratio (%) at 0.0001 nM [6]: 0.8%
M07e-hPD-1 cell proliferation ratio (%) at 0.001 nM [6]: 0%
M07e-hPD-1 cell proliferation ratio (%) at 0.01 nM [6]: 4.8%
M07e-hPD-1 cell proliferation ratio (%) at 0.1 nM [6]: 18.3%
M07e-hPD-1 cell proliferation ratio (%) at 1 nM [6]: 21.3%
M07e-hPD-1 cell proliferation ratio (%) at 10 nM [6]: 25.2%
M07e-hPD-1 cell proliferation ratio (%) at 100 nM [6]: 31.1%
M07e-hPD-1 cell proliferation ratio (%) at 1000 nM [6]: 45.5%
M07e-hPD-1 cell proliferation ratio (%) at 0.0001 nM [7]: 5.2%
M07e-hPD-1 cell proliferation ratio (%) at 0.001 nM [7]: 4.4%
M07e-hPD-1 cell proliferation ratio (%) at 0.01 nM [7]: 13.4%
M07e-hPD-1 cell proliferation ratio (%) at 0.1 nM [7]: 30.8%
M07e-hPD-1 cell proliferation ratio (%) at 1 nM [7]: 36%
M07e-hPD-1 cell proliferation ratio (%) at 10 nM [7]: 35.5%
M07e-hPD-1 cell proliferation ratio (%) at 100 nM [7]: 41.1%
M07e-hPD-1 cell proliferation ratio (%) at 1000 nM [7]: 55.4%
fold lower affinity than A-PC [8]: ~13 fold
binding result [9]: no binding
Kd [10]: 17.6 nM
koff [10]: 0.00175 s⁻¹
kon [10]: 99800 M⁻¹ s⁻¹
Kd [11]: 3.38 nM
koff [11]: 0.000215 s⁻¹
kon [11]: 63700 M⁻¹ s⁻¹
